According to US20190352642A1:

Target: complement C1q (in Hamster complement, Abcham Ab155111) (hamster)
Assay: cell-based or functional assay

| Substance | complement-induced hemolysis of Fc coupled RBC (OD 540 nm, against 100% hemolysis by Tween-20); 6 nm activated Fc (about 5x10^6 molecules per RBC) | complement-induced hemolysis of Fc coupled RBC; 1.2 nm activated Fc (about 1x10^6 molecules per RBC) | complement-induced hemolysis of IgG coupled RBC (OD 540 nm, against 100% hemolysis by Tween-20); 6 nm activated IgG (about 5x10^6 molecules per RBC) | complement-induced hemolysis of IgG coupled RBC; 1.2 nm activated IgG (about 1x10^6 molecules per RBC) | complement-induced hemolysis when about 1-2x10^4 IgG molecules were bound per one RBC (not shown) |
| --- | --- | --- | --- | --- | --- |
| h-IgG Fc fragment (Sigma Aldrich), chemically coupled to human red blood cells | 80% | 30 to 40% | – | – | – |
| h-IgG (Sigma Aldrich), chemically coupled to human red blood cells (antibody) | – | – | 90% | 30 to 40% | 85 to 95% |
